Assay [1] deals with HLA-A*01:01. The assay can be described thus: IEDB peptide-MHC binding, purified MHC/competitive/fluorescence; ≥ and ≤ were set here for values at or beyond the usual limits of such assays. The note with it: source organism: Sudan ebolavirus.
Assay [2] has as its target HLA-B*15:01. The description is as above.
The next assay concerns the target HLA-A*24:02. Described as above.
The target in the next assay is HLA-A*11:01. The assay is described as above.
In assay [3] the target is HLA-B*07:02. The assay is described as above. The note with it: source organism: Zaire ebolavirus.
Assay [4] deals with HLA-A*03:01. The assay is described as above.
Assay [5] addresses HLA-A*02:01. Described as above.
For another assay, the target named is HLA-A*24:03. The assay can be described thus: IEDB peptide-MHC binding, purified MHC/direct/fluorescence; filed as Kd, often an IC50 or EC50 that approximates it; ≥ and ≤ were set here for values at or beyond the usual limits of such assays. The note with it: source organism: Reston ebolavirus.
In assay [6] the target is HLA-A*01:01. The description is as above. The note with it: source organism: Reston ebolavirus - Reston.
Assay [7] deals with HLA-B*15:01. The description is as above.
The target in assay [8] is HLA-A*69:01. The assay is described as above. The note with it: source organism: Reston ebolavirus - Reston.
The target of another assay is HLA-A*29:02. Described as above.
The target of another assay is HLA-A*31:01. The description is as above. The note with it: source organism: Reston ebolavirus - Reston.
Another assay concerns the target HLA-B*48:01. Described as above. The note with it: source organism: Reston ebolavirus - Reston.
A further assay has as its target HLA-B*58:01. Described as above.
The next assay addresses HLA-A*68:02. Described as above.
Assay [9] has as its target HLA-B*57:01. The assay is described as above. The note with it: source organism: Reston ebolavirus - Reston.
The target of assay [10] is HLA-A*02:01. The description is as above. The note with it: source organism: Reston ebolavirus - Reston.
For assay [11], the target named is HLA-B*07:02. The assay is described as above. The note with it: source organism: Reston ebolavirus - Reston.
For a further assay, the target named is HLA-B*39:01. The assay is described as above. The note with it: source organism: Reston ebolavirus - Reston.
For the next assay, the target named is HLA-A*23:01. The assay is described as above. The note with it: source organism: Reston ebolavirus.
In another assay the target is HLA-B*46:01. The assay is described as above. The note with it: source organism: Reston ebolavirus - Reston.
A further assay deals with HLA-B*44:02. Described as above. The note with it: source organism: Reston ebolavirus - Reston.
The target of the next assay is HLA-B*27:05. The description is as above.
The next assay addresses HLA-B*40:01. The assay is described as above. The note with it: source organism: Reston ebolavirus - Reston.
The target of the next assay is HLA-B*18:01. The assay is described as above. The note with it: source organism: Reston ebolavirus - Reston.
In a further assay the target is HLA-A*02:12. The assay is described as above. The note with it: source organism: Reston ebolavirus.
In assay [12] the target is HLA-A*03:01. The description is as above.
The target in another assay is HLA-A*02:11. The assay is described as above. The note with it: source organism: Reston ebolavirus.
In another assay the target is HLA-A*26:01. The assay can be described thus: IEDB peptide-MHC binding, purified MHC/competitive/fluorescence; filed as Kd, often an IC50 or EC50 that approximates it; ≥ and ≤ were set here for values at or beyond the usual limits of such assays.
Assay [13] concerns the target HLA-B*51:01. The assay is described as above.
Another assay addresses HLA-B*27:03. The assay is described as above.
The target of assay [14] is HLA-B*51:01. The assay can be described thus: IEDB peptide-MHC binding, purified MHC/direct/fluorescence; filed as Kd, often an IC50 or EC50 that approximates it; ≥ and ≤ were set here for values at or beyond the usual limits of such assays.
Another assay addresses HLA-B*53:01. The assay is described as follows: IEDB peptide-MHC binding, purified MHC/competitive/radioactivity; filed as Kd, often an IC50 or EC50 that approximates it; ≥ and ≤ were set here for values at or beyond the usual limits of such assays. The note with it: source organism: Dengue virus 4 Philippines/H241/1956.
The target in a further assay is HLA-B*35:01. Described as above. The note with it: source organism: Dengue virus 4 Philippines/H241/1956.
A further assay addresses HLA-A*02:19. The assay is described as follows: IEDB peptide-MHC binding, purified MHC/direct/fluorescence; filed as Kd, often an IC50 or EC50 that approximates it; ≥ and ≤ were set here for values at or beyond the usual limits of such assays. The note with it: source organism: Zaire ebolavirus.
The target of assay [15] is HLA-A*69:01. The assay can be described thus: IEDB peptide-MHC binding, purified MHC/competitive/fluorescence; filed as Kd, often an IC50 or EC50 that approximates it; ≥ and ≤ were set here for values at or beyond the usual limits of such assays. The note with it: source organism: Zaire ebolavirus.
Assay [16] has as its target HLA-B*57:01. Described as above. The note with it: source organism: Zaire ebolavirus.
A further assay concerns the target HLA-B*08:01. The assay is described as follows: IEDB peptide-MHC binding, purified MHC/competitive/fluorescence; ≥ and ≤ were set here for values at or beyond the usual limits of such assays.
Where [17] appears, read: source organism: Sudan ebolavirus.
Setting [18] is: source organism: Zaire ebolavirus.
Where [19] appears, read: source organism: Reston ebolavirus - Reston.
Where [20] appears, read: source organism: Reston ebolavirus.
Setting [21] is: source organism: Vaccinia virus.

In general, IC50 refers to the concentration needed to halve the response being measured. Read a low IC50 as greater potency in that assay. What is called Kd is the equilibrium constant for the complex coming apart.

With YYATSYLEY, the figures for the IC50 with HLA-A*01:01 [1], with HLA-B*15:01 [2] (setting [17]) and with HLA-A*24:02 (setting [17]) were at least 110 µM, at least 244 µM and 0.676 µM, respectively.

Regarding KPVPNRSTK, the IC50 in the assay with HLA-A*11:01 (setting [18]) is at least 115 µM; in the assay with HLA-B*07:02 [3] it was 30.9 µM; with HLA-A*03:01 [4] (setting [18]), at least 166 µM.

As for THKLSLTKL, the IC50 is 46.2 µM with HLA-A*11:01 (source organism: Variola virus) and at least 149 µM with HLA-A*03:01 [4] (source organism: Variola virus).

In the case of STHNTPVYK, the IC50 is 0.44 µM with HLA-A*11:01 (setting [18]), at least 323 µM with HLA-A*02:01 [5] (setting [18]), at least 134 µM with HLA-A*24:02 (setting [18]) and 5.02 µM in the assay with HLA-A*03:01 [4] (setting [18]).

In the case of QQYAESREL, the IC50 is 15.7 µM in the assay with HLA-B*15:01 [2] (setting [18]), 58.2 µM with HLA-A*02:01 [5] (setting [18]), at least 134 µM with HLA-B*07:02 [3] and at least 72.4 µM with HLA-A*24:02 (setting [18]).

On to LIIDEVHEH, for which the IC50 with HLA-B*15:01 [2] (source organism: Variola virus) was at least 128 µM; with HLA-A*11:01 (source organism: Variola virus) it was 69.2 µM; in the assay with HLA-A*02:01 [5] (source organism: Variola virus) it was at least 99.4 µM.

As for QVEQHHRRT, the results for the IC50 in the assay with HLA-A*11:01 (setting [18]), with HLA-A*02:01 [5] (setting [18]) and in the assay with HLA-A*03:01 [4] (setting [18]) were 0.543 µM, at least 252 µM and 3.08 µM, respectively.

In the case of KLLLWFNYL, the IC50 with HLA-A*11:01 (source organism: Variola virus) was at least 140 µM; with HLA-A*03:01 [4] (source organism: Variola virus), at least 699 µM.

KHDFIDNPL: the Kd with HLA-A*24:03, with HLA-A*01:01 [6], with HLA-B*15:01 [7] (setting [19]), in the assay with HLA-A*69:01 [8], in the assay with HLA-A*29:02 (setting [19]) and in the assay with HLA-A*31:01 was at least 20 µM in each case. Moreover, the Kd in the assay with HLA-B*48:01, with HLA-B*58:01 (setting [19]), with HLA-A*68:02 (setting [20]), in the assay with HLA-B*57:01 [9], with HLA-A*02:01 [10] and with HLA-B*07:02 [11] was at least 20 µM each time. The Kd with HLA-B*39:01 is 4.89 µM; with HLA-A*23:01, at least 20 µM; in the assay with HLA-B*46:01 it was at least 20 µM; with HLA-B*44:02, at least 20 µM; in the assay with HLA-B*27:05 (setting [19]) it was at least 20 µM; with HLA-B*40:01, at least 20 µM. Also, the Kd with HLA-B*18:01, with HLA-A*02:12, with HLA-A*03:01 [12] (setting [19]), with HLA-A*02:11, in the assay with HLA-A*26:01 (setting [20]) and with HLA-B*51:01 [13] (setting [20]) was at least 20 µM throughout. This sequence displayed a Kd in the assay with HLA-B*27:03 (setting [20]) of at least 20 µM.

Turning to TPFGQQRVF, the results for the Kd in the assay with HLA-B*51:01 [14] (source organism: Dengue virus 1 Singapore/S275/1990), with HLA-B*53:01 and with HLA-B*35:01 were at least 20 µM, 0.264 µM and 0.0474 µM, respectively.

On to GQFLSFASL, for which the Kd was 0.032 µM in the assay with HLA-B*15:01 [7] (setting [18]); at least 20 µM with HLA-A*29:02 (setting [18]); at least 20 µM with HLA-B*58:01 (setting [18]); at least 20 µM with HLA-A*68:02 (setting [18]); 0.151 µM with HLA-B*27:05 (setting [18]); at least 20 µM with HLA-A*02:19. The Kd with HLA-A*03:01 [12] (setting [18]), with HLA-A*69:01 [15], with HLA-A*26:01 (setting [18]), with HLA-B*51:01 [13] (setting [18]), with HLA-B*57:01 [16] and with HLA-B*27:03 (setting [18]) was at least 20 µM in each case. In addition, the IC50 with HLA-B*15:01 [2] (setting [18]) is 1.27 µM; with HLA-A*02:01 [5] (setting [18]), 3.42 µM; with HLA-A*24:02 (setting [18]), 19.5 µM.

FQRTFSIPL: the IC50 with HLA-B*15:01 [2] (setting [18]) stood at 2.2 µM; in the assay with HLA-B*08:01 (setting [18]) it was 5.48 µM; with HLA-A*02:01 [5] (setting [18]), 3.55 µM; in the assay with HLA-B*07:02 [3], 3.92 µM; with HLA-A*24:02 (setting [18]), 47 µM.

For the sequence HKNKFMAIL, the concentration for half-maximal inhibition (IC50) in the assay with HLA-B*15:01 [2] (setting [18]) was at least 443 µM; in the assay with HLA-B*08:01 (setting [18]), 42.7 µM; in the assay with HLA-A*02:01 [5] (setting [18]), at least 782 µM; with HLA-A*24:02 (setting [18]), 50.9 µM.

In turn, SMRDQRKGR registered an IC50 with HLA-A*03:01 [4] (source organism: Variola virus) of 6.32 µM.

For the sequence LFLESGAVK, the IC50 was 68.8 µM in the assay with HLA-A*11:01 (setting [18]), 15.2 µM with HLA-A*24:02 (setting [18]) and at least 192 µM in the assay with HLA-A*03:01 [4] (setting [18]).

With GCLRIQSLM, the IC50 in the assay with HLA-B*15:01 [2] (setting [21]) was at least 591 µM; with HLA-B*08:01 (setting [21]) it was at least 697 µM; with HLA-A*02:01 [5] (setting [21]) it was 9.58 µM.

In turn, SPSKLASAI yielded a Kd with HLA-B*51:01 [14] (source organism: Dengue virus) of at least 20 µM.

The values are drawn from the Immune Epitope Database (IEDB).
